Biological target: T1, LAMP1 in human tumoral and non-tumoral tissues (Homo sapiens, UniProt P11279)
T1 construct: from tissue; host or cells: human tumoral and non-tumoral tissue sections and PDX tumour sections (frozen-OCT, AFA, FFPE)
T1 sequence (P11279 29-417): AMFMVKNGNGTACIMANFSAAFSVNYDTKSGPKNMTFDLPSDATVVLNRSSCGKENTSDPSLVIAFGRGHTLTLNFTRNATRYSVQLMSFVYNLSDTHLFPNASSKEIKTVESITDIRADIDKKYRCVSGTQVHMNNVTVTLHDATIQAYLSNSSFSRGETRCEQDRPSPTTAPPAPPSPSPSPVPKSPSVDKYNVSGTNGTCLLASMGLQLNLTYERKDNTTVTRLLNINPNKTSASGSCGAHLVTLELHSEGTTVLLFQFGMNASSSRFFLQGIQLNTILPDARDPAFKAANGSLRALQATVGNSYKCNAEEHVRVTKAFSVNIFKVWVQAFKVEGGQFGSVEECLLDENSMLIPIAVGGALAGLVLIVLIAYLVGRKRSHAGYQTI
Test: IHC on frozen-OCT / AFA human tumoral and non-tumoral tissues
Conditions: CR-LRB-010P, human non-tumoral colon and skin
Protocol: Individual hybridoma supernatants raised against tumor tissue CR-LRB-010P were screened by IHC on a macroarray slide containing frozen sections of immunizing tumor (CR-LRB-010P), human non-tumoral colon and human non-tumoral skin. Frozen-OCT (from Optimal Cutting Temperature) specimens of non-tumoral colon and skin were obtained from surgical cases (commercial sources such as Asterand, US Biomax, Strasbourg Hospital). The automated immunostaining was performed unsing Ventana Discovery and Discovery XT automated systems (Ventana Medical Systems, Inc, USA).
Frozen 10 μm cryostat sections were incubated with IgG culture supernatants as primary antibody (unknown concentration, dilution ⅓ in Phosphate Buffer Saline, PBS) for 40 min at 37° C. Culture medium was used as negative control. A postfixation step with glutaraldehyde (0.05% in NaCl 0.9% w/v) for 4 min was done. The secondary antibody Affinipure rabbit anti-mouse IgG (315-005_008, Jackson Immunosearch Laboratories, Inc. USA) was used at 4.8 μg/mL and incubated for 12 min at 37° C. Immunostaining was done with UltraMap Red chromogenic detection kit according to manufacturers recommendations for 8 min. Cryostat sections were subsequently couterstaining with hematoxylin II (790-2208, Ventana Medical Systems, Inc USA) and bluing for 4 min (760-2037). […]
Sections immunostained with mAbs were analyzed by microscope (Nikon Eclipse E400). […]

B1: MAb1: murine monoclonal anti-LAMP1 antibody, VH SEQ ID NO: 1, VL SEQ ID NO: 5 (antibody, V domains shown)
VH: QVQLQQSGAELVKPGASVKMSCKASGYIFTNYNIHWVKKSPGQGLEWIGAIYPGNGDAPYSQKFKDKATLTADKSSSTTYMQLSRLTSEDSAVYYCVRANWDVAFAYWGQGTLVSVSA
VL: DIQMTQSPPSLSASLGGKVTITCKASQDIDRYMAWYQDKPGKGPRLLIHDTSTLQPGIPSRFSGSGSGRDYSFSISNLEPEDIATYYCLQYDNLWTFGGGTKLEIK
modifications: Antibody Fragment; antibody fragment
IHC reactivity on frozen sections: showed evidence of tumor-associated reactivity

Source: patent US9809653B2, “Anti-LAMP1 antibodies and antibody drug conjugates, and uses thereof” (SANOFI, priority 2012, dated 2017)
